Tested on: human plasma
Test: Thrombelastography of human plasma exposed to Crotalus atrox venom and/or tPA (Example II)
Format: biochemical
Conditions: 0.5 μg/ml venom 5 min and/or 100 IU/ml tPA
Procedure: Two hundred mg of lyophilized, pooled venom was obtained from four western diamondback rattlesnakes (Crotalus atrox) for experimentation. Venom was reconstituted in calcium-free phosphate buffered saline (PBS, Sigma-Aldrich, Saint Louis, Mo., USA) at a concentration of 20 mg/ml, aliquoted, and then stored at −80° C. until experimentation at the University of Arizona.
Pooled normal plasma (George King Bio-Medical, Overland Park, Kans., USA) anticoagulated with sodium citrate was rapidly thawed at 37° C. and used for experimentation. To assess the effects of pretreatment of antifibrinolytic plasma proteins with iron, CO, or both, 1% additions of PBS, ferric chloride (FeCl3, 99.9% pure, Sigma-Aldrich, Saint Louis, Mo., USA) in PBS, or CORM-2 (tricarbonyldichlororuthenium (II) dimer, a CO releasing molecule, Sigma-Aldrich, Saint Louis, Mo., USA) dissolved in dimethyl sulfoxide (DMSO, Sigma-Aldrich, Saint Louis, Mo., USA) were used. […] Plasma was exposed to these various agents for at least 5 min prior to incubations with venom.
The final volume for all subsequently described plasma sample mixtures was 359.4 μl. […] The following elastic modulus-based parameters previously described (see, Nielsen V G, Pretorius E. Blood Coagul Fibrinolysis 2014; 25:695-702) were determined: time to maximum rate of thrombus generation (TMRTG): this is the time interval (min) observed prior to maximum speed of clot growth; maximum rate of thrombus generation (MRTG): this is the maximum velocity of clot growth observed (dynes/cm^2/sec); total thrombus generation (TTG, dynes/cm^2), the final viscoelastic resistance observed after clot formation; time to maximum rate of lysis (TMRL, min), maximum rate of lysis (MRL, dynes/cm^2/sec) and CLT (min). […]

[1] = vs control conditions (combination: vs all other conditions)

B1: tPA: tissue type plasminogen activator, 580 IU/μg, Genentech; 100 IU/ml final concentration (protein, UniProt P00750 36-562, looked up)
Tissue-type plasminogen …: SYQVICRDEKTQMIYQQHQSWLRPVLRSNRVEYCWCNSGRAQCHSVPVKSCSEPRCFNGGTCQQALYFSDFVCQCPEGFAGKCCEIDTRATCYEDQGISYRGTWSTAESGAECTNWNSSALAQKPYSGRRPDAIRLGLGNHNYCRNPDRDSKPWCYVFKAGKYSSEFCSTPACSEGNSDCYFGNGSAYRGTHSLTESGASCLPWNSMILIGKVYTAQNPSAQALGLGKHNYCRNPDGDAKPWCHVLKNRRLTWEYCDVPSCSTCGLRQYSQPQFRIKGGLFADIASHPWQAAIFAKHRRSPGERFLCGGILISSCWILSAAHCFQERFPPHHLTVILGRTYRVVPGEEEQKFEVEKYIVHKEFDDDTYDNDIALLQLKSDSSRCAQESSVVRTVCLPPADLQLPDWTECELSGYGKHEALSPFYSERLKEAHVRLYPSSRCTSQHLLNRTVTDNMLCAGDTRSGGPQANLHDACQGDSGGPLVCLNDGRMTLVGIISWGLGCGQKDVPGVYTKVTNYLDWIRDNMRP
maximum rate of thrombus generation (MRTG) [1]: did not decrease | total thrombus generation (TTG) [1]: significantly decreased | time to maximum rate of thrombus generation (TMRTG) (vs control conditions (combination: vs any other condition)): did not prolong
